The supplement of paper PMC10126150
± gives the standard deviation of the averaged measurements.

Tested on: ATP
Assay: switch fluorescence ratio, 500 uM ATP over buffer (Cy3 cluster intensity, sum of 5 cycles each) (fold (ratio)); higher = stronger signal-on switching upon ATP binding; sequences stand for … in TCGTCGGCAGCGTCAGATGTGTATAAGAGACAGTTTTTTTTTTTTTTTTTTTTTTTTT…TC
Conditions: aptamer strand: ATP DNA aptamer (quencher-CACCTGGGGGAGTATTGCGGAGGAAGG + anchor), 100 nM annealed; ATP concentration: 500 uM
Summary of the method: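 Cy3-labelled switching-strand clusters on a modified Illumina MiSeq flow-cell were annealed to 100 nM quencher-labelled ATP aptamer and imaged first in selection buffer, then after 15 min with 500 uM ATP at 22 °C. NaOH stripping and re-annealing separated each of five buffer/ATP cycles, and clusters outside 100-1000 RFU were excluded. The fluorescence ratio sums target-cycle Cy3 intensity over buffer-cycle Cy3 intensity per cluster and averages it per switch-domain sequence.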
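Also: ATP exposure 15 min at 22 °C before imaging.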

## AGGGGGCGGC
  switch fluorescence ratio: 0.995 ± 0.031

## AGGGGGGACG
  switch fluorescence ratio: 0.915 ± 0.098

## AGGGGGGTCT
  switch fluorescence ratio: 1.01 ± 0.04

## AGGGGGGTGA
  switch fluorescence ratio: 1.017 ± 0.0015

## AGGGGGGTTA
  switch fluorescence ratio: 0.984 ± 0.04

## AGGGGGTAAG
  switch fluorescence ratio: 0.988 ± 0.028

## AGGGGGTAGG
  switch fluorescence ratio: 0.978 ± 0.022

## AGGGGGTCTG
  switch fluorescence ratio: 0.968 ± 0.017

## AGGGGGTCTT
  switch fluorescence ratio: 1.01 ± 0.016

## AGGGGGTGTA
  switch fluorescence ratio: 1.02 ± 0.014

## AGGGGGTTAT
  switch fluorescence ratio: 1.01 ± 0.03

## AGGGGGTTCC
  switch fluorescence ratio: 0.99 ± 0.033

## AGGGGTAAAA
  switch fluorescence ratio: 1 ± 0.014

## AGGGGTAATT
  switch fluorescence ratio: 1.02 ± 0.024

## AGGGGTACAG
  switch fluorescence ratio: 0.995 ± 0.04

## AGGGGTACTG
  switch fluorescence ratio: 1.01 ± 0.099

## AGGGGTATTG
  switch fluorescence ratio: 0.993 ± 0.017

## AGGGGTCAAT
  switch fluorescence ratio: 0.997 ± 0.0012

## AGGGGTCTCA
  switch fluorescence ratio: 0.9852 ± 0.0035

## AGGGGTCTCT
  switch fluorescence ratio: 0.985 ± 0.013

## AGGGGTCTGT
  switch fluorescence ratio: 1.015 ± 0.0013

## AGGGGTGGGA
  switch fluorescence ratio: 1.01 ± 0.02

## AGGGGTGGGG
  switch fluorescence ratio: 1 ± 0.029

## AGGGGTGGGT
  switch fluorescence ratio: 1.04 ± 0.054

## AGGGGTGTTA
  switch fluorescence ratio: 0.991 ± 0.019

## AGGGGTTAGG
  switch fluorescence ratio: 0.992 ± 0.021

## AGGGGTTGGA
  switch fluorescence ratio: 1.01 ± 0.036

## AGGGGTTTGT
  switch fluorescence ratio: 1.02 ± 0.017

## AGGGGTTTTT
  switch fluorescence ratio: 0.991 ± 0.011

## AGGGTAAACT
  switch fluorescence ratio: 1.27 ± 0.37

## AGGGTAAGGA
  switch fluorescence ratio: 1.09 ± 0.18

## AGGGTAATCG
  switch fluorescence ratio: 1.02 ± 0.011

## AGGGTAGGGC
  switch fluorescence ratio: 1.02 ± 0.025

## AGGGTAGTTG
  switch fluorescence ratio: 0.994 ± 0.019

## AGGGTATAGA
  switch fluorescence ratio: 0.987 ± 0.01

## AGGGTATGGG
  switch fluorescence ratio: 1.03 ± 0.058

## AGGGTATGGT
  switch fluorescence ratio: 1.01 ± 0.023

## AGGGTATTAT
  switch fluorescence ratio: 0.987 ± 0.019

## AGGGTCAAGG
  switch fluorescence ratio: 0.971 ± 0.046

## AGGGTCCCGC
  switch fluorescence ratio: 0.9929 ± 0.0024

## AGGGTCGCTA
  switch fluorescence ratio: 1 ± 0.014

## AGGGTCTTTT
  switch fluorescence ratio: 1.03 ± 0.053

## AGGGTGAAAG
  switch fluorescence ratio: 0.992 ± 0.023

## AGGGTGAATT
  switch fluorescence ratio: 0.9848 ± 0.0075

## AGGGTGACAG
  switch fluorescence ratio: 0.9566 ± 0.0056

## AGGGTGCGGG
  switch fluorescence ratio: 1.01 ± 0.018

## AGGGTGCTGT
  switch fluorescence ratio: 1.02 ± 0.016

## AGGGTGGCTT
  switch fluorescence ratio: 1.02 ± 0.088

## AGGGTGTTAG
  switch fluorescence ratio: 1 ± 0.013

## AGGGTGTTGG
  switch fluorescence ratio: 1 ± 0.017

## AGGGTTAGGC
  switch fluorescence ratio: 0.933 ± 0.02

## AGGGTTATAG
  switch fluorescence ratio: 0.982 ± 0.025

## AGGGTTATGG
  switch fluorescence ratio: 0.996 ± 0.016

## AGGGTTATTC
  switch fluorescence ratio: 1 ± 0.013

## AGGGTTCGGA
  switch fluorescence ratio: 1.015 ± 0.0029

## AGGGTTGTGT
  switch fluorescence ratio: 1.02 ± 0.029

## AGGGTTTACG
  switch fluorescence ratio: 1.05 ± 0.045

## AGGGTTTGCG
  switch fluorescence ratio: 1.04 ± 0.042

## AGGGTTTTCT
  switch fluorescence ratio: 1 ± 0.012

## AGGGTTTTTT
  switch fluorescence ratio: 1.02 ± 0.039

## AGGTAAATGG
  switch fluorescence ratio: 1.02 ± 0.026

## AGGTACAGAC
  switch fluorescence ratio: 1.12 ± 0.024

## AGGTACTCGA
  switch fluorescence ratio: 1.05 ± 0.02

## AGGTAGATAG
  switch fluorescence ratio: 0.948 ± 0.0068

## AGGTAGGAAG
  switch fluorescence ratio: 0.999 ± 0.034

## AGGTAGGATT
  switch fluorescence ratio: 1.01 ± 0.05

## AGGTAGGGTA
  switch fluorescence ratio: 0.992 ± 0.031

## AGGTAGGTGT
  switch fluorescence ratio: 1.04 ± 0.023

## AGGTAGTTC
  switch fluorescence ratio: 0.96 ± 0.1

## AGGTATGGAG
  switch fluorescence ratio: 0.981 ± 0.065

## AGGTATTATC
  switch fluorescence ratio: 0.968 ± 0.014

## AGGTATTGCG
  switch fluorescence ratio: 0.994 ± 0.044

## AGGTCAGGTT
  switch fluorescence ratio: 1.0131 ± 0.0003

## AGGTCAGTTT
  switch fluorescence ratio: 0.989 ± 0.017

## AGGTCCGCTT
  switch fluorescence ratio: 1.32 ± 0.039

## AGGTCCGGGT
  switch fluorescence ratio: 0.9981 ± 0.0065

## AGGTCGAGGG
  switch fluorescence ratio: 0.997 ± 0.026

## AGGTCGGGAT
  switch fluorescence ratio: 1 ± 0.045

## AGGTCTAAGG
  switch fluorescence ratio: 1 ± 0.022

## AGGTCTAGC
  switch fluorescence ratio: 0.995 ± 0.017

## AGGTCTTATT
  switch fluorescence ratio: 1.08 ± 0.094

## AGGTCTTCCG
  switch fluorescence ratio: 1 ± 0.011

## AGGTCTTGGG
  switch fluorescence ratio: 0.972 ± 0.027

## AGGTGATTAG
  switch fluorescence ratio: 0.986 ± 0.044

## AGGTGCATAT
  switch fluorescence ratio: 1.045 ± 0.0041

## AGGTGCTAAT
  switch fluorescence ratio: 0.968 ± 0.011

## AGGTGGGGCT
  switch fluorescence ratio: 0.9811 ± 0.0089

## AGGTGGGGGC
  switch fluorescence ratio: 1.003 ± 0.0095

## AGGTGGGTCT
  switch fluorescence ratio: 0.991 ± 0.011

## AGGTGGGTTT
  switch fluorescence ratio: 0.988 ± 0.044

## AGGTGTGATA
  switch fluorescence ratio: 1.1 ± 0.051

## AGGTGTGGCT
  switch fluorescence ratio: 1 ± 0.048

## AGGTGTGTCT
  switch fluorescence ratio: 1.019 ± 0.0093

## AGGTGTTATT
  switch fluorescence ratio: 1.005 ± 0.0074

## AGGTGTTTTG
  switch fluorescence ratio: 1.02 ± 0.0087

## AGGTTAAAAT
  switch fluorescence ratio: 1.03 ± 0.024

## AGGTTAAGCA
  switch fluorescence ratio: 1.02 ± 0.0034

## AGGTTAGGCT
  switch fluorescence ratio: 0.989 ± 0.014

## AGGTTCACCC
  switch fluorescence ratio: 1.07 ± 0.08

## AGGTTCGGAT
  switch fluorescence ratio: 0.985 ± 0.056
